The record followed here is patent publication US11890364B2, “Composition for prevention or treatment of hair loss” (GOOD T CELLS, INC., priority 2017, dated 2024).

This test deals with T1, caspase-1 (Homo sapiens, UniProt P29466).
T1 sequence (P29466 120-297 limits assumed): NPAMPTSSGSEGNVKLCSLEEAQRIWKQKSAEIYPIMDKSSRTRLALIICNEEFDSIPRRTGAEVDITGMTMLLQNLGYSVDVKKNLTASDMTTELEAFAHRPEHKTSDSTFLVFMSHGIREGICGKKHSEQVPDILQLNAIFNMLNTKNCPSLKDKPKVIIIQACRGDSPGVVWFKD
T1 sequence (P29466 317-404 limits assumed): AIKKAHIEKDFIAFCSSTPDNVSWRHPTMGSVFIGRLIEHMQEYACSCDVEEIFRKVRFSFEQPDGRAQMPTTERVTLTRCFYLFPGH
The test can be described thus: Caspase-1 treatment followed by HPLC analysis. The format is biochemical. As to conditions: treated with caspase-1, HPLC analysis, FIG. 2. How it is done: Compound E1 obtained in Example 1, Compound E7 obtained in Example 7, and finasteride were prepared. Then, these compounds were treated with caspase-1, and analyzed with high performance liquid chromatography (HPLC). The results are illustrated in FIGS. 2 and 3.

Ends that are not written are not given here.

“Compound E7: finasteride linked via caspase-1 cleavage site (YVAD) and linkers to CTP+cysteine peptide (SEQ ID NO: 6) (YGRRARRRRRRC; also: finasteride linked via caspase-1 cleavage site (YVAD) and linkers, attachment site not given here)”: the “cleavage of the compound on treatment with caspase-1 (HPLC)” value is “cleaved into two moieties, that is, finasteride and the protein transduction domain”.
